Laboratory results reported in paper PMC4514675, “Novel Apo E-Derived ABCA1 Agonist Peptide (CS-6253) Promotes Reverse Cholesterol Transport and Induces Formation of preβ-1 HDL In Vitro” (PLoS ONE, 2015).

Assays:
[1] = tested on: BHK cells expressing ABCA1; experiment: Nascent HDL particle formation, 2D-PAGGE; assay type: cell-based, hamster; details: 0.96 μM
Description: Apo A-I and CS-6253-containing particles were separated according to charge (agarose, horizontal axis) and size (polyacrylamide gradient, 3% to 20% gel, vertical axis) as previously described. Apo A-I-containing particles were detected by incubating the membranes with immunopurified polyclonal anti-apo A-I antibody (Biodesign). The nHDL-CS-6253 containing particles were detected with immunopurified polyclonal anti-CS-6253 antibody (Biosynthesis Inc., Lewisville, TX). The anti-CS-6253 is a purified rabbit IgG polyclonal antibody specifically produced by Biosynthesis Inc. It is. Cross reactivity of this antibody was verified by Nondenaturing gradient gel electrophoresis (ND-PAGGE) 5% to 35% [24]. The anti-CS-6253 antibody recognizes only CS-6253 peptide in plasma; neither apo A-I nor apo E were detected by this antibody after separation by gradient gel electrophoresis respectively (Fig 1A, 1B and 1C). High molecular weight protein mixture (GE Healthcare, UK) was run as a standard on each gel.
Next, we investigated the nature of CS-6253-containing particles released in the medium from stimulated ABCA1 cells. Cells were first incubated in 100 mm diameter dishes with either (0.96 μM) apo A-I or CS-6253 in 8 ml of DMEM for 45 min and 6 h at 37°C. These two time points were selected based on our previous work on HDL biogenesis. Lipid free apo A-I or CS-6253 incubated in cell free system media under same conditions were used as control for 2D-PAGGE analysis. Apo A-I or CS-6253-containing particles were separated and analyzed by 2D-PAGGE. […] Both the charge and size of these nascent particles were stable over a 6h incubation period.
Fig 5 Time course ability of CS-6253 to generate nHDL-mimetic like particles. (A and B): nHDL-CS-6253 and nHDL-apo A-I released to the medium at specific time points (45 min and 6 h) from BHK cells expressing ABCA1 were analyzed by 2D-PAGGE. […] Molecular markers are indicated.

human ABCG1 = target: T1, human ABCG1 (Homo sapiens, UniProt P45844); experiment: ABCG1-mediated cholesterol efflux from BHK-ABCG1 cells; assay type: cell-based
T1 construct: expressed in transfected cells; host or cells: BHK cells, stably transfected, induced with 10 nmol/l mifepristone
Description: Supplementary file pone.0131997.s009.tif: S8 Fig In-vitro time-dependent ABCG1-mediated cholesterol efflux activity to nHDL-CS-6253 particles generated by BHK cells expressing ABCA1. Unlabeled BHK cells expressing ABCA1 were treated with 0.96 μM lipid free apo A-I or CS-6253 for 18 h as described in experimental procedures in the online-only Supplementary appendix, S1 Appendix. Then the medium was collected and added to 3[H]cholesterol-labeled ABCG1 expressing cells in a time-dependent fashion (0–6h), and assayed for cholesterol efflux (only 6h time point is shown). (TIF) Click here for additional data file.
Supplementary file pone.0131997.s010.tif: S9 Fig In-vitro ABCG1-mediated cholesterol efflux activity to lipid free CS-6253 and nHDL-CS-6253 particles generated by BHK cells expressing ABCA1. Unlabeled ABCA1 expressing cells were treated with increasing concentrations of apo A-I or CS-6253 for 18 h. The medium from unlabeled ABCA1 cells treated as described in experimental procedures, centrifuged to remove cellular debris, added to ^3[H]cholesterol-BHK ABCG1 expressing cells for 6 h, and assayed for efflux as described in the online-only Supplementary appendix, S1 Appendix. Lipid free peptide and apo A-I are also tested against ABCG1 expressing cells for 6h cholesterol efflux. (We selected 1 μM nHDL mimetic or nHDL-apo A-I or lipid free peptide and apo A-I for the figure). […] Efflux of ^3[H]cholesterol is shown as means ± SD of triplicate experiments. (TIF) Click here for additional data file.
All cell culture incubations were performed at 37 °C in a humidified 5% CO2. Cells (J774, or BHK overexpressing human ABCG1) were labeled with 2 μCi/ml ^3H-free cholesterol (Perkin Elmer, Norwalk, Connecticut) for 24 h. Simultaneously J774 cells were incubated with 2 μg/ml ACAT inhibitor (Sandoz, Sigma, Oakville, Canada). Afterward, J774 and BHK-ABCG1 were stimulated with 0.5 mmol/l (cpt-cAMP) (2) or 10 nmol/l mifepristone for 18-20 h, respectively (1). Cells were incubated with various doses of acceptor in media for 6 h for J774 macrophages and BHK-ABCG1 cells. Media were collected, centrifuged at 3.000 g for 5min to remove cell debris, and counted for radioactivity. Cells were lysed in 0.5 ml of (0.1N) NaOH overnight with constant shaking. Further, 0.2 ml cells lysates were mixed with scintillation liquid and counted for radioactivity. Efflux from stimulated cells without acceptor was subtracted from total efflux to determine net efflux. Cholesterol efflux was calculated according to the following formula as the percentage of ^3H-cpm medium/(^3H-cpm medium + ^3H-cpm cells) x 100%. Efflux efficiency (Km) was calculated using the Michaelis-Menten equation (Graph-Pad Prism6 software) respectively (S1, S8 and S9 Figs.)

[2] = BHK-ABCG1, 6 h, mean ± SD, triplicate

Q: apolipoprotein A-I [apo A-I] was tested. Which “electrophoretic mobility of released particles” value ([1]; 45 min or 6 h, BHK-ABCA1) did it give?
A: α-electrophoretic mobility

Q: What about the “electrophoretic mobility, incubated without cells” value ([1]; cell free media) of the same substance?
A: pre-β electrophoretic mobility

Q: What about the “molecular diameter, incubated without cells” value ([1]; lipid free, cell free media, pre-β mobility) of the same substance?
A: 7.1 nm

Q: What about the Km (human ABCG1; [2]) of the same substance?
A: 0.06 ± 0.01 µM

Q: And the “Km, ABCG1-mediated cholesterol efflux” value (human ABCG1; [2])?
A: 1.7 ± 0.50 µg/mL

Q: What about the “Vmax, ABCG1-mediated cholesterol efflux” value (human ABCG1; BHK-ABCG1, mean ± SD, triplicate) of the same substance?
A: 0.96 ± 0.01 % efflux/6h

Q: What about the “maximum net ABCG1 cholesterol efflux above base line” value (human ABCG1; lipid free, BHK-ABCG1, 6 h) of the same substance?
A: 1%
